Legend:
MS2 coat protein [1] = test: apparent KD of MS2 coat protein; designed switch direction (-1 OFF switch, 1 ON switch): -1; higher = weaker reporter binding; conditions: Eterna round: R98
Protocol: (§1)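 RNA-MaP: designed FMN/MS2 RNA switches (84 nt design region) are transcribed on-chip within common flanks and titrated with SNAP-549-labelled MS2 coat protein (about 1-3000 nM) in 100 mM Tris pH 7.5, 80 mM KCl, 4 mM MgCl2, without or with 200 uM FMN. Median apparent KD per design; activation ratio = KD,OFF / KD,ON.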

MS2 coat protein [2] = test: apparent KD of MS2 coat protein; higher = weaker reporter binding; conditions: Eterna round: R101
Protocol: as §1

Row | Sequence | apparent KD of MS2 coat protein (MS2 coat protein [1]; input ligand: FMN 200 uM) [nM] | apparent KD of MS2 coat protein (MS2 coat protein [1]; input ligand: none) [nM] | apparent KD of MS2 coat protein (MS2 coat protein [2]; input ligand: FMN 200 uM) [nM] | apparent KD of MS2 coat protein (MS2 coat protein [2]; input ligand: none) [nM]
1 | AAUUAAUUAAUUAAUUGGACUGAUACAUGAGGAUCACCCAUGUAGGAUAUGCAGUGGAAUACACUGCAGAAGGACAUACAGUCC [Exclusion NG 3/1-B2] | 18.3 | 14.5 | – | –
2 | AGGUGGGUGCUGCAGUGAUAUACAUGAGGAUCACCCAUGUCCGAGGAUAUGCGGCAAACACGCCAGCAGAAGGCGGAGAAAAUG [Soorisrila] | 154 | 125 | – | –
3 | AAAGUCGAGAAGAUAAUAAUGAAUACAUGAGGAUCACCCAUGUAGGAUAUGCAGUGGAAUACACUGCAGAAGGACAUACUCGAC [Exclusion NG 3/16-B1] | 16.4 | 13.6 | – | –
4 | CACGACAGGAAACGGAGCGGCCAACAUGAGGAUCACCCAUGUGAGGAUAUGCCUACUAAAAGUAGGCAGAAGGCACAGAAGGCA [Ex NG2 #73] | 136 | 58.1 | – | –
5 | GCACUGGAUGUAGGAUAUCAGGACGAUAAGUCCUGAGAAGGACAUGAGGAUCACCCAUGUAAAUACUCCCAGUGCAAUAAUAUA [Denovo Exng1 21] | 16.6 | 12.6 | – | –
6 | UUGCAUUGAUGAGGAUAUGGACAUGAGGAUCACCCAUGUUGGGCGGGUAUGAUUUCCGAGGGAGGCUAGAAGGCGUAUUAUGUU [Exclusion NG 2] | 60.8 | 45.5 | – | –
7 | GCUGCAAAGUAAGGAUAUGCCUAGGAAACCUAGGCAGAAGGUACAUGAGGAUCACCCAUGUUAACUGAAACAGAAUAAAGCAGC [Thrunch 6 - Jieux - Exclusion NG 1] | 23.2 | 13.5 | – | –
8 | GCGUAAAAGAUCCUAUUUAUCUACAUGAGGAUCACCCAUGUGCAGGAUAUGCUAUAUUUAAUAAAGCAGAAGGGCAAUAACCGC [JR_ExcNG3_Sub009] | 281 | 67.6 | – | –
9 | GGUUAUAUAACAUGAGGAUCACCCAUGUGAGUGGUCCGAAGCUAGGAUAUCCACACGAGAAGUGUGGAGAAGGAGCAUUCAUUA [AK-NGROCr2-ExNG3-7] | 159 | 273 | – | –
10 | UCUUAAAUGAUCCUAUUUACCAACAUGAGGAUCACCCAUGUGCAGGAUAUGCUAAAGAUAGAUAAGCAGAAGGGCAUUAACCGC [JR_ExcNG3_Sub006] | 244 | 165 | – | –
11 | AGUACUCCAGAAGGAUAUGCGUCGGUGGAUGUCCUUAGGCGGACGGUCACAUGAGGAUCACCCAUGUAGAAGGUCUGGGAGCCA [Leesla] | 87.3 | 19.2 | – | –
12 | UAAAUAGAUCCUAGAGGAUCACCCUAGGAUAUCACCGUCGAGGUGCCAUAAUGGCACCUCGACGGUGAGAAGGAGGGAAAUAAA [#SharedSequence - SLExNG3: 2] (puzzle (switch architecture): Small Loop Exclusion NG 3) | – | – | 77.8 | 51.2
13 | AAAUAAAUUGAAGGAUAUCAGGGUGCACCUCAGUAAAACUGAGGUGCACCCUGAGAAGGUCGAGGAUCACCCGAUCUAAAUAAA [#SharedSequence SLExNG1: 1-2] (puzzle (switch architecture): Small Loop Exclusion NG 1) | – | – | 12 | 8.76
14 | UGUGUUAUCGGAGGAUAUCGAUAUCAAACAUGAGGAUCACCCAUGUUGAGGAUCACCCAUGUCCACGAGAAGGCCGGCGUACUG [My 7th design] (puzzle (switch architecture): Same State NG 2) | – | – | 12.5 | 12.9

From the supplement of paper PMC9170038
